Laboratory results: paper PMC2789033

Legend:
[1] = biological target: F5/8C module of LamA (Paenibacillus β-1,3-glucanase), residues 1636-1793 (Paenibacillus sp. BCRC 17245); test: cross-linking; protein 0.65 mg/mL, 0.05% glutaraldehyde, room temperature, 1 h, 12% SDS-PAGE
[2] = biological target: F5/8C module of LamA (Paenibacillus β-1,3-glucanase), residues 1636-1793 (Paenibacillus sp. BCRC 17245); test: SEC; Sephacryl S-300 gel filtration column (Hiprep 16/60), 10 mM sodium acetate pH 5.8, 10% glycerol; monomer to dimer
[3] = biological target: F5/8C module of LamA (Paenibacillus β-1,3-glucanase), residues 1636-1793 (Paenibacillus sp. BCRC 17245); test: AUC; sedimentation velocity, 20°C, 42000 rpm, protein 0.17 mg/mL in 10 mM phosphate pH 7.0, 10% glycerol; c(s) by Sedfit94; monomer to dimer

F5/8C module of LamA (Paenibacillus β-1,3-glucanase), residues 1636-1793 (domain or fragment)
stoichiometry N [1]: 2
dimer fraction [2]: 15%
stoichiometry N [2]: 2
dimer fraction [3]: 15%
stoichiometry N [3]: 2
